Legend:
[1] = target: T1, cell-surface human mesothelin (naturally expressed on OVCAR3, NCI-H226, CFPAC-1 and KB cells and on human … (human, UniProt Q13421 296-598)); assay: flow cytometry on KB cells
T1 construct: whole, on cells; Endogenously expressed on the cell lines; also called cell surface mesothelin
Description: (§1) To test the ability of the antibodies to bind to cell surface mesothelin protein, the antibodies were incubated with four different mesothelin-expressing cells: OVCAR3 (ATCC Designation HTB-161, a human ovarian cancer cell line), NCI-H226 (ATCC Designation CRL-5826, a human lung-derived mesothelioma), CFPAC-1 (ATCC Designation CRL-1918, a human pancreatic cancer cell line), and KB (ATCC Designation CCL-17, a human oral carcinoma cell line). For the flow cytometry studies, the 3C10, 6A4 and 7B1 monoclonal antibodies were diluted with cold 1×PBS+0.1% BSA to 40 μg/mL. For the binding reaction, 50 μl of diluted antibody solution was added to a 50 μl cell suspension containing 4×10⁵ cells and the mixture was incubated on ice for 30-60 minutes. The cells were then washed three times with 1×PBS+0.1% BSA. A 1:50 dilution of R-phycoerythrin-labeled goat anti-human IgG Fγ F(ab)₂ fragment (Jackson ImmunoResearch Labs, Cat. #109-116-098) was added and the mixture was incubated on ice for 1 hour, followed by washing twice with cold 1×PBS+0.1% BSA. After the final wash, 200 μl of cold 1×PBS+0.1% BSA was added to each solution and analysis of antibody binding was carried out by FACS.

[2] = target: T1, cell-surface human mesothelin …; assay: flow cytometry on OVCAR3 cells
Description: as §1

[3] = target: T1, cell-surface human mesothelin …; assay: flow cytometry on CFPAC-1 cells
Description: as §1

[4] = target: T1, cell-surface human mesothelin …; assay: flow cytometry on NCI-H226 cells
Description: as §1

[5] = target: T2, hu mesothelin-his fusion protein (human, UniProt Q13421 296-598, limits assumed); assay: BIAcore SPR, antibody captured on protein G chip, mesothelin His-fusion protein injected
T2 construct: domain: 40 kD portion of mesothelin; Soluble fusion protein secreted by transfected CHO cells; also called recombinant soluble mesothelin his-fusion protein; recombinant human mesothelin His-fusion protein; not shown: His tag at the C-terminus
Description: The binding of the 3C10, 6A4 and 7B1 antibodies to recombinant soluble mesothelin his-fusion protein was examined by BIAcore™ using a capture method. The 3C10, 6A4 and 7B1 antibodies each were separately captured on a protein G (Pierce, Rockford, Ill.) coated CM5 chip at high density (4000 RUs). The coating was performed based on the standard immobilization procedure recommended by the manufacturer. After the 3C10, 6A4 or 7B1 purified antibody was captured on protein G, a concentration series of recombinant human mesothelin His-fusion protein (450, 225, 112.5, 56, and 28 nM) was injected over the captured antibody for 2 minutes at a flow rate of […]. The antigen was allowed to dissociate for 8 minutes. Isotype controls were run on the chip, and the data used to subtract non-specific binding. All the analyses were carried out on a Biacore 2000 or 3000 surface plasmon resonance instrument, using BIAcore Control software v 4.01. Data was analyzed using BiaEvaluation v4.01 software.

[6] = target: mesothelin on CHO-mesothelin cells (CHO cells transfected to express the 40 kD membrane-associated portion of … (UniProt Q13421 296-598, limits assumed)); assay: cell-based or functional assay
Chain of mesothelin on CHO-mesothelin cells (CHO cells transfected to express the 40 kD membrane-associated portion of … (Q13421 other isoform, or with tags, fused parts or gaps limits assumed): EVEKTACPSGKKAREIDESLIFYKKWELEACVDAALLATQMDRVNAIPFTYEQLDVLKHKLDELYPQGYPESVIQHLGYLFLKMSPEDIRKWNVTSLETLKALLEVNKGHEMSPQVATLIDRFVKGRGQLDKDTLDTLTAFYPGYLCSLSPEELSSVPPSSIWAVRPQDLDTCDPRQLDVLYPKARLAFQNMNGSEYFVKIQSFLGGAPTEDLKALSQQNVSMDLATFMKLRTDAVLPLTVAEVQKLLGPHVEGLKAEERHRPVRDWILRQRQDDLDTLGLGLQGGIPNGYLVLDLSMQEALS

T2 sequence (Q13421 other isoform, or with tags, fused parts or gaps limits assumed): as above
T1 sequence (Q13421 other isoform, or with tags, fused parts or gaps limits assumed): as above

| EC50 [1] | EC50 [2] | EC50 [3] | EC50 [4] | Kd [5] | koff [5] | kon [5] | Binder | Antibody Dependent Cellular Cytotoxicity, EC50 (nM), CHO-mesothelin target cells [6] |
| --- | --- | --- | --- | --- | --- | --- | --- | --- |
| 0.0679 nM | 0.11 nM | 0.0643 nM | 0.664 nM | 2.4 nM | 0.000171 s⁻¹ | 71500 M⁻¹ s⁻¹ | human monoclonal antibody 7B1 (antibody, V domains shown, also called 7B1 mAb; 1382.210.7B1.2.18) VH: EVHLVESGGGLVQPGGSLRLSCAASGFTFSRYWMSWVRQAQGKGLEWVASIKQAGSEKTYVDSVKGRFTISRDNAKNSLSLQMNSLRAEDTAVYYCAREGAYYYDSASYYPYYYYYSMDVWGQGTTVTVSS VL: not shown |  |
| 0.144 nM | 0.213 nM | 0.193 nM | 0.197 nM | 5.8 nM | 0.000362 s⁻¹ | 63000 M⁻¹ s⁻¹ | human monoclonal antibody 3C10 (antibody, IgG1, V domains shown, hybridoma-derived purified antibody; also called 3C10 mAb; 1382.210.3C10.1.6) VH: QVYLVESGGGVVQPGRSLRLSCAASGITFSIYGMHWVRQAPGKGLEWVAVIWYDGSHEYYADSVKGRFTISRDNSKNTLYLLMNSLRAEDTAVYYCARDGDYYDSGSPLDYWGQGTLVTVSS VL: EIVLTQSPATLSLSPGERATLSCRASQSVSSYLAWYQQKPGQAPRLLIYDASNRATGIPARFSGSGSGTDFTLTISSLEPEDFAVYYCQQRSNWPLTFGGGTKVEIK |  |
| 0.181 nM | 0.17 nM | 0.193 nM | 0.156 nM | 5.9 nM | 0.000377 s⁻¹ | 63900 M⁻¹ s⁻¹ | human monoclonal antibody 6A4 (antibody, IgG1, V domains shown, also called 6A4 mAb; 1382.210.6A4.1.6) VH: QVHLVESGGGVVQPGRSLRLSCVASGITFRIYGMHWVRQAPGKGLEWVAVLWYDGSHEYYADSVKGRFTISRDNSKNTLYLQMNSLRAEDTAIYYCARDGDYYDSGSPLDYWGQGTLVTVSS VL: EIVLTQSPATLSLSPGERATLSCRASQSVSSYLAWYQQKPGQAPRLLIYDASNRATGIPARFSGSGSGTDFTLTISSLEPEDFAVYYCQQRSNWPLTFGGGTKVEIK | 63.1 nM |

— patent publication US20110262448A1 (Bristol-Myers Squibb, published 2011)
